B1: equine IgG1 M252A (antibody, part only; not given: variable domains, not shown: another chain or arm of the molecule)
constant: ASTTAPKVFALAPGCGTTSDSTVALGCLVSGYFPEPVKVSWNSGSLTSGVHTFPSVLQSSGFYSLSSMVTVPASTWTSETYICNVVHAASNFKVDKRIEPIPDNHQKVCDMSKCPKCPAPELLGGPSVFIFPPNPKDTLAITRTPEVTCVVVDVSQENPDVKFNWYMDGVEVRTATTRPKEEQFNSTYRVVSVLRIQHQDWLSGKEFKCKVNNQALPQPIERTITKTKGRSQEPQVYVLAPHPDELSKSKVSVTCLVKDFYPPEINIEWQSNGQPELETKYSTTQAQQDSDGSYFLYSKLSVDRNRWQQGTTFTCGVMHEALHNHYTQKNVSKNPGK
B2: equine IgG1 T286Q (antibody, part only; not given: variable domains, not shown: another chain or arm of the molecule)
constant: ASTTAPKVFALAPGCGTTSDSTVALGCLVSGYFPEPVKVSWNSGSLTSGVHTFPSVLQSSGFYSLSSMVTVPASTWTSETYICNVVHAASNFKVDKRIEPIPDNHQKVCDMSKCPKCPAPELLGGPSVFIFPPNPKDTLMITRTPEVTCVVVDVSQENPDVKFNWYMDGVEVRQATTRPKEEQFNSTYRVVSVLRIQHQDWLSGKEFKCKVNNQALPQPIERTITKTKGRSQEPQVYVLAPHPDELSKSKVSVTCLVKDFYPPEINIEWQSNGQPELETKYSTTQAQQDSDGSYFLYSKLSVDRNRWQQGTTFTCGVMHEALHNHYTQKNVSKNPGK
B3: equine IgG4 N434M (antibody, part only; not given: variable domains, not shown: another chain or arm of the molecule)
constant: ASTTAPKVFPLASHSAATSGSTVALGCLVSSYFPEPVTVSWNSGALTSGVHTFPSVLQSSGLYSLSSMVTVPASSLKSQTYICNVAHPASSTKVDKKIVIKECNGGCPAECLQVGPSVFIFPPKPKDVLMISRTPTVTCVVVDVGHDFPDVQFNWYVDGVETHTATTEPKQEQFNSTYRVVSVLPIQHKDWLSGKEFKCKVNNKALPAPVERTISKPTGQPREPQVYVLAPHRDELSKNKVSVTCLVKDFYPTDIDIEWKSNGQPEPETKYSTTPAQLDSDGSYFLYSKLTVETNRWQQGTTFTCAVMHEALHMHYTEKSVSKSPGK
B4: equine IgG4 N434S (antibody, part only; not given: variable domains, not shown: another chain or arm of the molecule)
constant: ASTTAPKVFPLASHSAATSGSTVALGCLVSSYFPEPVTVSWNSGALTSGVHTFPSVLQSSGLYSLSSMVTVPASSLKSQTYICNVAHPASSTKVDKKIVIKECNGGCPAECLQVGPSVFIFPPKPKDVLMISRTPTVTCVVVDVGHDFPDVQFNWYVDGVETHTATTEPKQEQFNSTYRVVSVLPIQHKDWLSGKEFKCKVNNKALPAPVERTISKPTGQPREPQVYVLAPHRDELSKNKVSVTCLVKDFYPTDIDIEWKSNGQPEPETKYSTTPAQLDSDGSYFLYSKLTVETNRWQQGTTFTCAVMHEALHSHYTEKSVSKSPGK
B5: equine IgG4 N434V (antibody, part only; not given: Variable domains, not shown: another chain or arm of the molecule)
constant: ASTTAPKVFPLASHSAATSGSTVALGCLVSSYFPEPVTVSWNSGALTSGVHTFPSVLQSSGLYSLSSMVTVPASSLKSQTYICNVAHPASSTKVDKKIVIKECNGGCPAECLQVGPSVFIFPPKPKDVLMISRTPTVTCVVVDVGHDFPDVQFNWYVDGVETHTATTEPKQEQFNSTYRVVSVLPIQHKDWLSGKEFKCKVNNKALPAPVERTISKPTGQPREPQVYVLAPHRDELSKNKVSVTCLVKDFYPTDIDIEWKSNGQPEPETKYSTTPAQLDSDGSYFLYSKLTVETNRWQQGTTFTCAVMHEALHVHYTEKSVSKSPGK
B6: equine IgG4 N434Y (antibody, part only; not given: variable domains, not shown: another chain or arm of the molecule)
constant: ASTTAPKVFPLASHSAATSGSTVALGCLVSSYFPEPVTVSWNSGALTSGVHTFPSVLQSSGLYSLSSMVTVPASSLKSQTYICNVAHPASSTKVDKKIVIKECNGGCPAECLQVGPSVFIFPPKPKDVLMISRTPTVTCVVVDVGHDFPDVQFNWYVDGVETHTATTEPKQEQFNSTYRVVSVLPIQHKDWLSGKEFKCKVNNKALPAPVERTISKPTGQPREPQVYVLAPHRDELSKNKVSVTCLVKDFYPTDIDIEWKSNGQPEPETKYSTTPAQLDSDGSYFLYSKLTVETNRWQQGTTFTCAVMHEALHYHYTEKSVSKSPGK
B7: equine IgG4 N434W (antibody, part only; not given: variable domains, not shown: another chain or arm of the molecule)
constant: ASTTAPKVFPLASHSAATSGSTVALGCLVSSYFPEPVTVSWNSGALTSGVHTFPSVLQSSGLYSLSSMVTVPASSLKSQTYICNVAHPASSTKVDKKIVIKECNGGCPAECLQVGPSVFIFPPKPKDVLMISRTPTVTCVVVDVGHDFPDVQFNWYVDGVETHTATTEPKQEQFNSTYRVVSVLPIQHKDWLSGKEFKCKVNNKALPAPVERTISKPTGQPREPQVYVLAPHRDELSKNKVSVTCLVKDFYPTDIDIEWKSNGQPEPETKYSTTPAQLDSDGSYFLYSKLTVETNRWQQGTTFTCAVMHEALHWHYTEKSVSKSPGK
B8: equine IgG4 N434P (antibody, part only; not given: variable domains, not shown: another chain or arm of the molecule)
constant: ASTTAPKVFPLASHSAATSGSTVALGCLVSSYFPEPVTVSWNSGALTSGVHTFPSVLQSSGLYSLSSMVTVPASSLKSQTYICNVAHPASSTKVDKKIVIKECNGGCPAECLQVGPSVFIFPPKPKDVLMISRTPTVTCVVVDVGHDFPDVQFNWYVDGVETHTATTEPKQEQFNSTYRVVSVLPIQHKDWLSGKEFKCKVNNKALPAPVERTISKPTGQPREPQVYVLAPHRDELSKNKVSVTCLVKDFYPTDIDIEWKSNGQPEPETKYSTTPAQLDSDGSYFLYSKLTVETNRWQQGTTFTCAVMHEALHPHYTEKSVSKSPGK
B9: equine IgG4 N434R (antibody, part only; not given: variable domains, not shown: another chain or arm of the molecule)
constant: ASTTAPKVFPLASHSAATSGSTVALGCLVSSYFPEPVTVSWNSGALTSGVHTFPSVLQSSGLYSLSSMVTVPASSLKSQTYICNVAHPASSTKVDKKIVIKECNGGCPAECLQVGPSVFIFPPKPKDVLMISRTPTVTCVVVDVGHDFPDVQFNWYVDGVETHTATTEPKQEQFNSTYRVVSVLPIQHKDWLSGKEFKCKVNNKALPAPVERTISKPTGQPREPQVYVLAPHRDELSKNKVSVTCLVKDFYPTDIDIEWKSNGQPEPETKYSTTPAQLDSDGSYFLYSKLTVETNRWQQGTTFTCAVMHEALHRHYTEKSVSKSPGK
B10: equine IgG4 N434T (antibody, part only; not given: variable domains, not shown: another chain or arm of the molecule)
constant: ASTTAPKVFPLASHSAATSGSTVALGCLVSSYFPEPVTVSWNSGALTSGVHTFPSVLQSSGLYSLSSMVTVPASSLKSQTYICNVAHPASSTKVDKKIVIKECNGGCPAECLQVGPSVFIFPPKPKDVLMISRTPTVTCVVVDVGHDFPDVQFNWYVDGVETHTATTEPKQEQFNSTYRVVSVLPIQHKDWLSGKEFKCKVNNKALPAPVERTISKPTGQPREPQVYVLAPHRDELSKNKVSVTCLVKDFYPTDIDIEWKSNGQPEPETKYSTTPAQLDSDGSYFLYSKLTVETNRWQQGTTFTCAVMHEALHTHYTEKSVSKSPGK
B11: equine IgG4 N434Q (antibody, part only; not given: variable domains, not shown: another chain or arm of the molecule)
constant: ASTTAPKVFPLASHSAATSGSTVALGCLVSSYFPEPVTVSWNSGALTSGVHTFPSVLQSSGLYSLSSMVTVPASSLKSQTYICNVAHPASSTKVDKKIVIKECNGGCPAECLQVGPSVFIFPPKPKDVLMISRTPTVTCVVVDVGHDFPDVQFNWYVDGVETHTATTEPKQEQFNSTYRVVSVLPIQHKDWLSGKEFKCKVNNKALPAPVERTISKPTGQPREPQVYVLAPHRDELSKNKVSVTCLVKDFYPTDIDIEWKSNGQPEPETKYSTTPAQLDSDGSYFLYSKLTVETNRWQQGTTFTCAVMHEALHQHYTEKSVSKSPGK

Broadly, the Kd is a measure of binding affinity in units of concentration. High values mean weaker binding, low ones tighter binding.

This assay concerns the target equine FcRn (large alpha subunit p51) / equine beta-2-microglobulin complex, biotinylated (equine) (UniProt P30441). Put plainly: SPR (Biacore), pH 6. In general terms: SPR reads the build-up and loss of mass on a sensor chip optically.
Chain of UniProt P30441 (P30441 21-118, one chain of several): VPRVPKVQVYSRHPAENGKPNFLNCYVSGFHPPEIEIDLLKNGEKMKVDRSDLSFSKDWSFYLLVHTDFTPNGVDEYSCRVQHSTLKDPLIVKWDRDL
The molecule B1 showed a Kd of 50.3 nM.

Molecule B2 came in with a Kd of 17 nM. This Kd is about 3-fold lower than that of the molecule before.

Turning to B3, the Kd turned out to be 43.4 nM.

B4 registered a Kd of 23.8 nM.

As for B5, the Kd was determined as 32.6 nM.

On to B6, for which the dissociation constant (Kd) came to 4.6 nM.

In turn, B7 had a Kd of 1.6 nM.

B8 registered an equilibrium dissociation constant (Kd) of 39.4 nM.

As for B9, the dissociation constant Kd is 22.7 nM.

For the molecule B10, the Kd was found to be 57.5 nM.

As for B11, the dissociation constant Kd was determined as 17.7 nM.

For the origin of these results see US20260070987A1.
